Assays:
TarM(Se) = conditions: 30 mM ligand; acceptor site; only two RboP units and one phosphate ordered; monomeric mutant
[1] = biological target: TarM(Se) E10A mutant (S. epidermidis); assay: SEC; Superdex 200 increase 10/30, calibrated column; buffer D: 20 mM triethanolamine pH 7.8 (TarM(Se)_(G117R)) or 8.5 (TarM(Se) and mutant proteins), 250 mM LiCl, 10 mM β-mercaptoethanol, 5% glycerol
[2] = biological target: TarM(Se) K233A mutant (S. epidermidis); assay: as above
[3] = biological target: TarM(Se) N9A mutant (S. epidermidis); assay: as above
[4] = biological target: TarM(Se) N203A mutant (S. epidermidis); assay: as above
[5] = biological target: TarM(Se) N255A mutant (S. epidermidis); assay: as above
[6] = biological target: TarM(Se) Q265A mutant (S. epidermidis); assay: as above
[7] = biological target: TarM(Se), WTA glycosyltransferase TarM of S. epidermidis, wild type (S. epidermidis); assay: crystal structure
[8] = biological target: TarM(Se), WTA glycosyltransferase TarM of S. epidermidis, wild type (S. epidermidis); assay: SEC; Superdex 200 increase 10/30, calibrated column; buffer D: 20 mM triethanolamine pH 7.8 (TarM(Se)_(G117R)) or 8.5 (TarM(Se) and mutant proteins), 250 mM LiCl, 10 mM β-mercaptoethanol, 5% glycerol

NCCCCCCOP(=O)(O)OC[C@@H](O)[C@@H](O)[C@@H](O)COP(=O)(O)OC[C@@H](O)[C@@H](O)[C@@H](O)COP(=O)(O)OC[C@@H](O)[C@@H](O)[C@@H](O)COP(=O)(O)OC[C@@H](O)[C@@H](O)[C@@H](O)CO [4RboP-(CH2)6NH2]
X-ray crystal structure (cocrystallization) (TarM(Se)): The 4RboP-(CH2)6NH2 compound was introduced into the TarM(Se)G117R crystals through cocrystallization

TarM(Se) E10A mutant (enzyme)
stoichiometry N [1]: 3

TarM(Se) K233A mutant (enzyme)
stoichiometry N [2]: 3

TarM(Se) N9A mutant (enzyme)
stoichiometry N [3]: 3

TarM(Se) N203A mutant (enzyme)
stoichiometry N [4]: 3

TarM(Se) N255A mutant (enzyme)
stoichiometry N [5]: 3

TarM(Se) Q265A mutant (enzyme)
stoichiometry N [6]: 3

TarM(Se), WTA glycosyltransferase TarM of S. epidermidis, wild type (enzyme)
stoichiometry N [7]: 3
stoichiometry N [8]: 3
